The results in this text go back to US20100162418A1 (Kyowa Kirin, published 2010).

The target in the assay is T1, human plasma-derived complement C4 binding protein (C4BP; manufactured by BioMed) (human, UniProt P04003 49-597; P20851 18-252).
T1 construct: mature; Bought plasma protein; also called Human C4BP
T1 sequence (looked up) 1: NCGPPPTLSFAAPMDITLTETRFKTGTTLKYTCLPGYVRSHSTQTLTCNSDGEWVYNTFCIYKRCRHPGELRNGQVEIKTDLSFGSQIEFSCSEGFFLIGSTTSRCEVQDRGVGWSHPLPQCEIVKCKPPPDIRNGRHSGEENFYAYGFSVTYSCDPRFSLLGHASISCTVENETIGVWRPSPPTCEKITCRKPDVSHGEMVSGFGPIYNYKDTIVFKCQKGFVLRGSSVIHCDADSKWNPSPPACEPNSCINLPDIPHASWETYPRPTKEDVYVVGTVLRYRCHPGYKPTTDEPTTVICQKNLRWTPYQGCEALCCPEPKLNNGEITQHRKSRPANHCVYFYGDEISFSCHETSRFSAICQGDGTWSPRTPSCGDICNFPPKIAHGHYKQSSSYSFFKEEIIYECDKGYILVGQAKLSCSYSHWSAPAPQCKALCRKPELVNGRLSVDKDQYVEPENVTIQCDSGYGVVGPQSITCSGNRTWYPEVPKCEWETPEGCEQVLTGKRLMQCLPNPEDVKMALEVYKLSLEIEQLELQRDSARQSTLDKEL
T1 sequence (looked up) 2: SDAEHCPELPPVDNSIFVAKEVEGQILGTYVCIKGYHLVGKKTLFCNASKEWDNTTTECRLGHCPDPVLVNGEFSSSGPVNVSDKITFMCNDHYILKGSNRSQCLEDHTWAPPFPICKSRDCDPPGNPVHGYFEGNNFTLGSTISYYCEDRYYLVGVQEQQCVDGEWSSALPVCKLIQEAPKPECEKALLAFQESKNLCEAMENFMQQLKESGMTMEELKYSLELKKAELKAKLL
Kind of assay: SPR (Biacore T100), KCPS immobilised on CM5, C4BP as analyte. From the text:
Using an amine coupling kit (manufactured by Biacore), human plasma-derived Protein S (manufactured by Calbiochem), and recombinant human Protein S prepared in Example 4, MSPS and KCPS were respectively immobilized on flow cells of a CM5 sensor chip (manufactured by Biacore). An immobilized amount of the ligand protein on the respective flow cells was set to the range of 1500 to 2000 RU. Then, an anti-human Protein S antibody C-17 (manufactured by Santa Cruz) (FIG. 7), or a human plasma-derived complement C4 binding protein (manufactured by BioMed) diluted to given concentrations (50000, 25000, 12500, 6250, 3125, and 1562 ng/mL) using HBS-EP+buffer (manufactured by Biacore), as an analyte, was allowed to run and bind to the ligand-immobilized flow cells at a temperature of 25° C., a flow rate of 5 μL/min, association time of 140 seconds, and dissociation time of 240 seconds. The anti-human Protein S antibody C-17 and the human plasma-derived complement C4 binding protein are known to bind to the sex hormone-binding globulin-like domain (SHBG domain) at the carboxyl terminal of Protein S. The chip was regenerated by a flow of an aqueous glycine solution (pH 1.5) (manufactured by Biacore) for 60 seconds. Dissociation constants calculated by analysis of the obtained data using Biacore T100 evaluation software ver 1.1 (manufactured by Biacore) are given in Table 2 below.
(In general: SPR reads the build-up and loss of mass on a sensor chip optically.)

B1: KCPS, purified recombinant human Protein S obtained from CHO/DG44 cells (other)
chain: ANSLLEETKQGNLERECIEELCNKEEAREVFENDPETDYFYPKYLVCLRSFQTGLFTAARQSTNAYPDLRSCVNAIPDQCSPLPCNEDGYMSCKDGKASFTCTCKPGWQGEKCEFDINECKDPSNINGGCSQICDNTPGSYHCSCKNGFVMLSNKKDCKDVDECSLKPSICGTAVCKNIPGDFECECPEGYRYNLKSKSCEDIDECSENMCAQLCVNYPGGYTCYCDGKKGFKLAQDQKSCEVVSVCLPLNLDTKYELLYLAEQFAGVVLYLKFRLPEISRFSAEFDFRTYDSEGVILYAESIDHSAWLLIALRGGKIEVQLKNEHTSKITTGGDVINNGLWNMVSVEELEHSISIKIAKEAVMDINKPGPLFKPENGLLETKVYFAGFPRKVESELIKPINPRLDGCIRSWNLMKQGASGIKEIIQEKQNKHCLVTVEKGSYYPGSGIAQFHIDYNNVSSAEGWHVNVTLNIRPSTGTGVMLALVSGNNTVPFAVSLVDSTSEKSQDILLSVENTVIYRIQALSLCSDQQSHLEFRVNRNNLELSTPLKIETISHEDLQRQLAVLDKAMKAKVATYLGGLPDVPFSATPVNAFYNGCMEVNINGVQLDLDEAISKHNDIRAHSCPSVWKKTKNS
modifications: gamma-carboxylated glutamic acid (Gla) in the Gla domain; complex type N-glycoside-linked sugar chains with fucose (Fuc 0.69 per Man 3.00)
notes: It differs from MSPS only in glycosylation (highest core fucose ratio)
The term Kd denotes a measure of binding affinity in units of concentration. As for B1, the Kd was 81 nM.
